From the supplement of paper PMC12636428

Tested on: Saccharomyces cerevisiae
Assay: transcriptional activation domain activity (GFP:mCherry ratio, weighted mean of sorted bins, harmonized to initial dataset scale) (arbitrary fluorescence ratio units); higher = stronger transcriptional activation
Conditions: beta-estradiol 1 µM; induction time 4 h
In short: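 The listed activation activity is a read-weighted mean of bin median fluorescence, averaged across barcodes and linearly mapped onto the initial dataset scale. Barcoded tiles, fused to an estradiol-inducible synthetic transcription factor, were integrated at URA3 in yeast diploids bearing a GFP reporter. Cells were held 4 hours at 30 °C in SC with 1 uM beta-estradiol, sorted into 8 GFP:mCherry bins, and sequenced, and tiles with fewer than 50 reads were excluded.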

Sequence | transcriptional activation domain activity
PIYNLHFAPSNEYWFSFSYLPGQGQCTLDSSTTSIGQTRYFIWSLSLWRRIFL | 70200
PKADGDAEPKPKAPRGTKRKAAEETNGAEEGGEAPAAKKAKPASKAKPASKAA | 16400
PKAEAPKAEAPKPKEEESKKETAKQESKPEPKKADASKIAAPAASKPPAPKPS | 49200
PKCSSLRKPTNTLQGTNHAYHEHILNTDMDLKILEDLCNISSLYEVPFGKHIN | 115000
PKDEKKQEDDQKAKDGSKSEGDLGEKKEEKVEEKKDDDNKSGEKKDEASKSGD | 28000
PKDGAKEEKKSSKSRGEEKRSRSDRKEREREEKSSKGSASDKAEQPPKATASS | 6730
PKDSEPEGADKLKPMQEVYGAVRNTGIGTEVDNRDNMIRGRWRKLLHARLAHL | 43500
PKEAVASTPEEPAASEPVAAPALAAAEPVAAAEAPAAAPVPETKAEEVSIQHL | 23600
PKEDVQPEPEAQPAESVEAAPASEEQAPVEKTEEAPATEETEESRPSPPAARL | 37600
PKKEEPKRRSASRKRGSIFGGSLFGKKEEAKKEEEKPVEAAAETKAAETEAPA | 30700
PKKLQEDTELETEQENQMLNQVGNINYTHDFSLSHEIDDLIRELFGVGTPQKL | 65300
PKPAPAAAAAPAPAAAPPAAAPAPEPKKYAPPPARPAPAPAAAPVAAAAAAAP | 9320
PKPKAKTPSKAKKKAEPIPKAKAAPKPKEKTTPNTPARRGRPRKEKAAAETPM | 37500
PKPVPEQEMKDAAEKPEPEETKAAGEVKPEDAMEVDQTSKPAKSKKGKIVKRR | 24400
PKQYCVRPNAARLEPGERVEVQVLLQPMKEDPPEDTKCRDKFLIQSAAIPPQH | 39200
PKRASQGRNFNTLFDKYFTGKDWEIHIMRTLRPDIFILLCVLFVPTEFKEIHD | 37700
PKRGRGRPPKDPAAKAAAAAAAAEAEANGEKKPGRGRPRKNPVPSGEGGEAVP | 19600
PKRKRAAPKKKDAEDNTEEKPKRGRKKKEENGDAEEKPKKAPVRKARATKKVE | < 6570
PKRRLGVAVTWTGLTLLLLLLLLLLPSLIILPSFAACFWYIYWGILRISFFFY | 26100
PKSRPKKAKEEAVATGALGATGVVPEKRKRGRPRKIQPPIDGVALVAPPVAAP | 51700
PKVLYILARYLGIIYISLFLGLRWSHFPIFVMKVNNLAYFVNALLYYTWIIIT | 33800

Sequence | transcriptional activation domain activity
PKWHRYEDYEALFRVRNLCFPLILSGDIQLTLEYWWSIFSTSILRRPIFELNI | 69600
PLAGNSPGLPPEEVRNNSENASHNNETGPIETELAQTISNEFWTAYNLGWEEL | 56400
PLALDFPPLGHMVELVDVVMWLCGRAGELPMWPQKIFNFNWIELSMKYPHHFI | 50500
PLEKLMCLRTSLSLLSAAADKYMQENRLTVFHTSVASDDLILLLACALTQTHL | 50200
PLEYFDIKALSALIVFDEFPNYIIGLLLQSYPELVHGTFMPYIECMLFTMNPL | 61800
PLFRHQDSLLIVASNIGLVGMISILVYCTYAFSLQSVVKFYFIPYVLVNHWIV | 45200
PLFSILFSLSSFLSLPCPAHGCGPVGSWWSCLFLLFFFLSLLVMLSLLWCFGF | 41000
PLGTVGLAKLVFVKMFGGAKRITITLISAALLMMAVRFFSIAHPFLLADNRHY | 62400
PLHLLGDKAEVEIGGVWSAGMAYGSRELVERHLFSLYFMLPLVAVCIGFLYHN | 41200
PLIDLFGKDHLCLVKAAYHKIFGIVFESGTDLTDHVRRMLCTRSDFARTILPL | 82800
PLIPHVLPSLFPCPLFLPLFPPSPLLSPFPPSLCFPLPPFFLFPPLPLFPPFL | 25600
PLIQVPGYHSCGHGGLGGLCQASPTLLVISQSLFLRWWHTVHLLIEIYIWLWS | 72200
PLLACQVAYGFLVVFFSYSLIEEQVGCVIYYEHLVMLCWLVIIMPPNALLSTV | 58700
PLLFLLNRLPIHPPLLIVPVLLWFYCRLTIYSILFWLNNLMVQKLSLLIMSIF | 34500
PLLLKGLQFTMAEEKTWSLLRQIMLLDNLPLIDPAPTRFMYLLLGAIPRLLNG | 49700
PLLNGSAIISRLTTGVIGDRYGVLTCEVPVAFITGCLIFSMCVLLLIILHLVC | 21700
PLLRVLQICSFKDLMFDVPHLHRFISNAELLRTLNHLDVSFSSYSVFLQLVGF | 70500
PLLTLNGLNCFFSLIYLINLLYSLKLFLQYFFFCLPFHIFILLMHSFLYYIFY | 62400
PLLVLSKRLHSIFMLRCFNDCFAVLGLWLAIFCYQRDQWHLGSFFYSTGLNVK | 71500
PLNMLHLGTWYLDGFQPFEHLRANKELWNLLVRGQTEILSLPRFGWTGWLLSF | 46900
PLPPSSPHWLVWIHAQDVVTMRMPSRIRPLLQELLEVIISVIQPSLHSAPQSG | 49500

Sequence | transcriptional activation domain activity
PLPSPPSLPLPSPPSHSLLPLFLPFLPSLCSSLSILFPPLLLSHCPCFSFFLS | 63500
PLSLLIYFLEWIGPLNLWIRCLCKTSLIEFYFRLLVILLMPFLFVFWHIIGLG | 40100
PLVLPVTAFYFYMDSFLKKYLLLYVFITKYESGGMFWRVVFNRFLFLTLLGNI | 60500
PLVRWMLDYVINHGEIVHSHPSIRTLATSLIDHPYFLSFICSSFFIEPRGLSG | 34800
PLVVDFPQAVEYFPEMALKYMMCWLSRFDLLPGERLGCRVLAAFIHLTIHRVS | 57200
PLVVFPNFMAVVIIFGFFFMYFEDFNKEVFLHNKHHQIWVYLHFPLHLCQVAF | 78400
PLVVTALCVAPHEFFMKNWVSCFEVGLVKLKEKPYRMIVMNGMMRLIWTYLYR | 52800
PLWLAPNLVTLLGFFCILFNIFLLVILVPDLVGPGPSWLYYSFGLGVWMYSTM | 68600
PLYAYTIWSWLCQGVYFTLLTLLSFDQFQSLGEICFIFFELSFGNAMMVTLVS | 80300
PLYPTTRCIFFFYRFLLYVVHLNMSLLMHSFFFVLLQACRGWMSLFLLLSLLF | 47900
PMAVTLIERNVILGLRNAKTTDQLNTLINSLPFNNTSMLFLRLAMTKLSVIWS | 59900
PMGGDPLLDQAFYGADDFFFPPEGCDNNMLYPQTATSWNVLPPQAMQPAPTYV | 63900
PMRLHVDHVHVVGRPFLWYIIVAMCDNVTHVVLSFSGLTYYTTSRWFESIPYR | 61200
PMSDQHKSQLLPITSVRLRLKLIVHWIHGFKTQWWFRVFFFQKYLRSILFDPF | 37700
PNDDFLLDCEEWGLNQLFGDEQFSNNINDLSDDLLALIPDWSFIPPSEDPWGL | 147000
PNGLMDPVLSTTNVSATSSNDNSANNSISSPEYTFGQFSMDSPHRTDATNTPI | 23000
PNIHSLHSLYTFRFLHIHSFHNLFFLPFFYFLYSLCFLHLPCFLSFLRFLHLL | 63900
PNIILPLNPCRSGEFCELYPSAANLWAMFLHLILFCMQLPFILSIPFWLLFPV | 52900
PNLLMPCPWRSMDLCIFFRLAVGFFFLFLFPLSLSLPPSPFFFLFFSTPVIMV | 62500
PNRRSMGKQDPYCAARLGKEAKKTATDRRGGQTPKWDQELRFTVHDSPDYHQL | 64200
PNSSTSMDWLDNVIYTNRFVSGDDGSNSKTKNLDSNMFSNDFNFENQFDEQVS | 91700

Sequence | transcriptional activation domain activity
PNSTGDDPSRLRRAHRKSPGGCQSCKRRRVKCDEKVSCSNCRRRREHCHAGQQ | 56900
PNVFGLMLFELGLGFWIKTDYYYMLICLSVSSLVFRAEISLLSGLLVLQDIFL | 66400
PNWESLFGLMDFVRIRAEKLQWHLFLSLIRFMEAMIVRYMANYDRRTLHNSTE | 44300
PNYEQHPAPAPAPAPGNKPEEHHEEKPEEHHEEKPSYEQHPAPAPAYQANAPH | 19400
PPASTHTSVTSSPPVNDQWKDYALVLVRLMPMDKLSKPSFRYIIKSTYVRAVC | 58000
PPCLKLAGWLAFVVGSFCQSTNLVVIQISQNNWDCFSIWRTLILLVIFFSLPA | 58500
PPEEEAEEAVGAEKAEEAEEAEEAEEAVEEEPPKAANGRRSRAAAASAAKSSN | 35500
PPGNRTGAVTIGDESINGSEMPDFSLDLVSNDRQTGLEALDYDIHNYFPQHSE | 75200
PPGRVAPDAESVGYVLHSRLLTLLFPLFFFSLPLYNSSLLAGWAGWGLMMITF | 62900
PPILVWMRYNAFFILYPLGAGSECLLTFFSLDEAHAWWPHYALLLKIILLIYI | 73800
PPLSSPFLCFPLCFPLPPLPLFPPSPLFPLSSPPSLFPFPPLPLFNPFLPSLC | 29800
PPPARAARPARRRGRGCQRRMSSRLCRGREGGGGGGVRLPVQVGVVMVVQLGR | 73100
PPPHLQLIYSCKAVRSSIQIFFDRAFIFKCSSSLWVCIVMFSRWLRTIRLFVW | 85600
PPPKGSDAALAAPPPPPGASGAPPPPPPKGSEAAAAAPPPPPPADASGAPPPP | 26100
PPPPPPPGAMGGLPPPPPPPPPPPGGPGGGPPPPPPPPPGGPGGPPPPPPPPG | 35100
PPPPPPPPPGPSPARFAPPPAPPPPPPPSGRPAPPPAPPPPPPPPPPAFGGGP | 17000
PPPPPPPPPPAGRGGGAPPPHAISGGAPPPPPTPPPPPPPPPPPGVVPVPPPP | 41600
PPPPPPPPPPGRGGAGHPPPPPPPPPPPAGGGGGPPPPPPPPPPSGGAPPPPP | < 6570
PPPPPPPPPPPLSLLTTAIPPPPPPPPPLGGGPPPPPPPPPGPGGPPPPPPPP | 30700
PPSLVDLVANTIAACHSETTPETVSLQIVKALLSLVLSSTILVHHSSLLKAVR | 50700
